Reference: patent publication US11795460B2, “Compositions and methods for TTR gene editing and treating ATTR amyloidosis” (Intellia Therapeutics, Inc., priority 2017, dated 2023)
Strand notation (5' to 3'): a small letter for the sugar, then the base; units joined by * are phosphorothioate-linked, units joined directly phosphodiester-linked; [ ] holds rarer units or linkages, { } end groups; capitals alone tell only the bases. m = 2'-O-methyl; r = 2'-OH (RNA)

B1: G000502: TTR Cyno specific sgRNA modified sequence, SEQ ID No. 114; guide sequence of CR000689; cross homologous between mouse and cyno (nucleic acid)
guide: mA*mC*mA*rCrArArArUrArCrCrArGrUrCrCrArGrCrGrGrUrUrUrUrArGrAmGmCmUmAmGmAmAmAmUmAmGmCrArArGrUrUrArArArArUrArArGrGrCrUrArGrUrCrCrGrUrUrArUrCrAmAmCmUmUmGmAmAmAmAmAmGmUmGmGmCmAmCmCmGmAmGmUmCmGmGmUmGmCmU*mU*mU*mU
B2: G000481: TTR sgRNA modified sequence, Human, SEQ ID No. 88; guide sequence of CR003345 (nucleic acid)
guide: mU*mC*mU*rArGrArArCrUrUrUrGrArCrCrArUrCrArGrGrUrUrUrUrArGrAmGmCmUmAmGmAmAmAmUmAmGmCrArArGrUrUrArArArArUrArArGrGrCrUrArGrUrCrCrGrUrUrArUrCrAmAmCmUmUmGmAmAmAmAmAmGmUmGmGmCmAmCmCmGmAmGmUmCmGmGmUmGmCmU*mU*mU*mU

Assays:
[1] = tested on: mouse TTR; experiment: Serum mouse TTR ELISA in mice dosed with LNP formulations (Table 28); type: in vivo; conditions: wild type CD-1 mice; 1, 0.3, 0.1, 0.03, or 0.01 mg/kg; FIG. 15B
Method: Blood was collected and the serum was isolated as indicated. The total mouse TTR serum levels were determined using a Mouse Prealbumin (Transthyretin) ELISA Kit (Aviva Systems Biology, Cat. OKIA00111); rat TTR serum levels were measured using a rat specific ELISA kit (Aviva Systems Biology catalog number OKIA00159); human TTR serum levels were measured using a human specific ELISA kit (Aviva Systems Biology catalog number OKIA00081); each according to manufacture's protocol. Briefly, sera were serial diluted with kit sample diluent to a final dilution of 10,000-fold, or 5,000-fold when measuring human TTR in mouse sera. […] The absorbance of the contents was measured on the Spectramax M5 plate reader with analysis using SoftmaxPro version 7.0 software. Serum TTR levels were quantitated off the standard curve using 4 parameter logistic fit and expressed as ug/mL of serum or percent knockdown relative control (vehicle treated) animals.
In separate experiments using wild type CD-1 mice, an LNP formulation comprising guide G000502, which is cross homologous between mouse and cyno, was tested in a dose response study. […] Liver editing results were determined using primers designed to amplify the region of interest for NGS analysis. […]

[2] = tested on: TTR protein amyloid deposition; experiment: Semi-quantitative immunohistochemistry of TTR in stomach, colon, sciatic nerve, DRG of V30M mice; type: in vivo, mouse; conditions: 8 weeks post-treatment, single 1 mg/kg dose
Method: A well-established humanized transgenic mouse model of hereditary ATTR amyloidosis that expresses the V30M pathogenic mutant form of human TTR protein was used in this Example. This mouse model recapitulates the TTR deposition phenotype in tissues observed in ATTR patients, including within the peripheral nervous system and gastrointestinal (GI) tract (See Santos et al., Neurobiol Aging. 2010 February; 31(2):280-9).
Mice (aged approximately 4-5 months) were dosed with LNP formulations prepared using the cross-flow and TFF procedures as described in Example 1. The LNPs were formulated with an N:P ratio of 6.0 and contained Lipid A, Cholesterol, DSPC, and PEG2k-DMG in a 50:38:9:2 molar ratio, respectively. The LNPs contained Cas9 mRNA (SEQ ID NO: 1) and either G000481 (“G481”) or a non-targeting control guide G000395 (“G395”; SEQ ID NO: 273), in a 1:1 ratio of gRNA:mRNA by weight.
Mice were injected via the lateral tail vein as described in Example 1 with a single 1 mg/kg (of total RNA content) dose of LNP with an n=10/group. […] Human TTR protein levels were measured in serum and cerebrospinal fluid (CSF) by ELISA as previously described by Butler et al., Amyloid. […] Other tissues (stomach, colon, sciatic nerve, dorsal root ganglion (DRG)) were collected and processed for semi-quantitative immunohistochemistry as previously described by Gonsalves et al., Amyloid. […]

Molecule | Serum mouse TTR levels, dose response [1] | Reduction in TTR staining across the treated tissues [2] [%]
B1 | A dose response for both editing and serum TTR levels was evident | 
B2 |  | ≥ 85
